This assay concerns the target T1, human CCR5 chemokine receptor (Homo sapiens, UniProt P51681).
T1 construct: host or cells: Chinese Hamster Ovary (CHO) cells; membranes prepared from the cell pellet
The assay can be described thus: CC-Chemokine Receptor-5 Binding by Scintillation Proximity Assay (CCR5 SPA), displacement of 125I-MIP1α. The conditions noted are these: standards plate, 14-point concentration-response curve in triplicate, starting concentration 1 μM. Here is the method: CC-Chemokine Receptor-5 Binding by Scintillation Proximity Assay (CCR5 SPA)
Scintillation Proximity Assay for the Human CC-Chemokine Receptor, CCR-5
This protocol describes a high-throughput screen using SPA binding to identify compounds that inhibit binding of ^125I-MIP1α to the human CCR5 chemokine receptor.
Human CCR5 receptors were expressed in Chinese Hamster Ovary (CHO) cells, registration # 12025. Cells were grown in suspension and a 50 to 80 ml CCR5 cell pellet was prepared. […]
The saturation curve binding experiment is performed by adding varying amounts of [^125I]MIP1α (0-8.5 nM to membranes and beads in concentrations chosen from the optimal protein/bead ratio. The data is analyzed using a non-linear curve-fitting program. The Kd and Bmax are derived from the curve. […]
(SPA uses beads or plates that emit light when radiolabelled molecules are held near them.)

T1 sequence (P51681 whole entry): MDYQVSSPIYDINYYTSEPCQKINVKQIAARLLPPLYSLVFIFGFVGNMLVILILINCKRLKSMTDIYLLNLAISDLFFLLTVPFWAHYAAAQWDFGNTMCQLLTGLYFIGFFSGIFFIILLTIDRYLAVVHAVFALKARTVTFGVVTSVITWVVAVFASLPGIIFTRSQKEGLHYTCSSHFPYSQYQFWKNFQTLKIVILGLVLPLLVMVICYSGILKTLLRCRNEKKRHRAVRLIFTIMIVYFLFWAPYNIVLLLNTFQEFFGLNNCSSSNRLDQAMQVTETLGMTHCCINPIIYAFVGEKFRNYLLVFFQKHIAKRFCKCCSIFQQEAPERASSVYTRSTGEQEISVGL

Regarding “MIP1α: standard compound of the CCR5 SPA; natural chemokine ligand of CCR5”, the “average historical pKi obtained with MIP1α” value is reported as 7.6.
